Measured values: paper PMC6791870, “Switch of the interactions between the ribosomal stalk and EF1A in the GTP- and GDP-bound conformations” (Scientific Reports, 2019)
Numbering of substitutions follows the chain as printed. Primed or numbered codes have the meaning given here. Where no end group is shown, it is not given here. FITC′ = fluorescein isothiocyanate label

What was measured:
Assay in all cases: fluorescence polarisation; FITC-labeled PhoP1C14 peptide (50 nM) mixed with 0-160 µM of the complex of each PhoEF1A mutant, GTP and PfuPelota; 20 mM HEPES-KOH pH 7.6, 10 mM MgCl2, 150 mM KCl, 0.1 mg/ml BSA; 25 °C; nonlinear regression, one site specific binding (GraphPad Prism 6); average of three replicates
Details in all cases: both partners purified
[1] = molecular target: T1, PhoEF1A R132A•GTP•PfuPelota complex (Pyrococcus horikoshii | Pyrococcus …, UniProt O59153 1-428, R132A)
T1 construct: elongation factor aEF1A of Pyrococcus horikoshii (PhoEF1A); complex of the EF1A mutant, GTP and PfuPelota; also called R132(R140)A; P. horikoshii aEF1A-R132A
T1 sequence 1: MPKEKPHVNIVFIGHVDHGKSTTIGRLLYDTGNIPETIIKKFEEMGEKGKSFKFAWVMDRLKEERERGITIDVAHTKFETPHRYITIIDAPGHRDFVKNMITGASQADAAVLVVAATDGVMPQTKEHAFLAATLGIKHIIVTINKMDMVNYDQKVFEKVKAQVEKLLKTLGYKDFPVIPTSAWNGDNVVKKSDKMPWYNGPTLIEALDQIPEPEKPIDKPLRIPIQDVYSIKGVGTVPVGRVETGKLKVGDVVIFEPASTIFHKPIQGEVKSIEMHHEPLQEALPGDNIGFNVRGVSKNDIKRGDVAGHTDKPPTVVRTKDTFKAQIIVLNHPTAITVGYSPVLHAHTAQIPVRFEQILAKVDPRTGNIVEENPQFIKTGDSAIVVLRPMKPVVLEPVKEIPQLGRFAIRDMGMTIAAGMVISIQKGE
T1 sequence 2: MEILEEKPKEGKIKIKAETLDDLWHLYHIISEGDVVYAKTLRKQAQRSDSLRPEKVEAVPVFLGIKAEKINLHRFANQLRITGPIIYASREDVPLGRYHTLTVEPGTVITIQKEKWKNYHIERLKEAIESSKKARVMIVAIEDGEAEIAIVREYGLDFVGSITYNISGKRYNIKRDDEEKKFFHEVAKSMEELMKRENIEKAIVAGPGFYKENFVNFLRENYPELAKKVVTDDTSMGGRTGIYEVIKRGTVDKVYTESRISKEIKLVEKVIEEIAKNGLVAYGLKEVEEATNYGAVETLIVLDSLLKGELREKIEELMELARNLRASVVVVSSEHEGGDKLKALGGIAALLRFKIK

[2] = molecular target: T2, PhoEF1A V398S•GTP•PfuPelota complex (Pyrococcus horikoshii | Pyrococcus …, UniProt O59153 1-428, V398S)
T2 construct: elongation factor aEF1A of Pyrococcus horikoshii (PhoEF1A); complex of the EF1A mutant, GTP and PfuPelota; also called V398(F401)S; P. horikoshii aEF1A-V398S
T2 sequence 1: T1 sequence 1 with A132R, V398S
T2 sequence 2: T1 sequence 2

[3] = molecular target: T3, PhoEF1A M420S•GTP•PfuPelota complex (Pyrococcus horikoshii | Pyrococcus …, UniProt O59153 1-428, M420S)
T3 construct: elongation factor aEF1A of Pyrococcus horikoshii (PhoEF1A); complex of the EF1A mutant, GTP and PfuPelota; also called M420(I423)S; P. horikoshii aEF1A-M420S
T3 sequence 1: T1 sequence 1 with A132R, M420S
T3 sequence 2: T1 sequence 2

Kd [1]: 87.8 ± 12 µM
Kd [2]: 38.3 ± 2.8 µM
Kd [3]: 80.1 ± 8.7 µM
B1: FITC-labeled C-terminal 14-mer peptide of P. horikoshii aP1 (PhoP1C14) (peptide)
peptide: {FITC′}-SEEEALAGLSALFG
notes: also called FITC-labeled peptide of PhoP1C14; source: synthetic peptide (Hokkaido System Science Co., Ltd)
